Columns and labels:
Assay in all cases: ITC
[1] = target: Rel from Chlorobaculum tepidum, full-length (Chlorobaculum tepidum (TLS entry; …, UniProt Q8KC80)
[2] = target: RelCt^R215E (Chlorobaculum tepidum)
[3] = target: Escherichia coli RelA, full-length (Escherichia coli (K-12 entry; strain …, UniProt P0AG20)
Sequence of Escherichia coli RelA, full-length (Escherichia coli (P0AG20 whole entry): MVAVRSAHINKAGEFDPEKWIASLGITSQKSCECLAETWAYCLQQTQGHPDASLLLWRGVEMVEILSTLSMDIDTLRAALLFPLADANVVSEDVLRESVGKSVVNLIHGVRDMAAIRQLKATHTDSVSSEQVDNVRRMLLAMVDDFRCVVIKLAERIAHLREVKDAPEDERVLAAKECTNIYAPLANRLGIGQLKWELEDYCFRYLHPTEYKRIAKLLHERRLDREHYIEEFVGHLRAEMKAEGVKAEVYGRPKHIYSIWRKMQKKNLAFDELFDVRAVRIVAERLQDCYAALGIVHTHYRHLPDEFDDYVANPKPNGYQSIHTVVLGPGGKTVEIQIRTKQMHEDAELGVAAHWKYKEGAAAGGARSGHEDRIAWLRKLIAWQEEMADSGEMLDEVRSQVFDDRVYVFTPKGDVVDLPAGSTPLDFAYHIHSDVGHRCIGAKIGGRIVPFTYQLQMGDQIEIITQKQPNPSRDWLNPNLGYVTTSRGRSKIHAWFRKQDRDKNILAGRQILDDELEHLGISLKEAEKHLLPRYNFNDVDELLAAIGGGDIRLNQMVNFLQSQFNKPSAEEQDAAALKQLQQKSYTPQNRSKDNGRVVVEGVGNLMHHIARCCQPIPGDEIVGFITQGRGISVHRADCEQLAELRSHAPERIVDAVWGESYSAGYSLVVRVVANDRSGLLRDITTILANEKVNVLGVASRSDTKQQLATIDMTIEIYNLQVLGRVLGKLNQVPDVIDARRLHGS

Binder	Kd [1] [nM]	Kd [3] [nM]	also measured
Nb898 (VHH) VHH: QVQLQESGGGLVQAGGSLRLSCAASGSIESINAMAWYRQAPGKPRELVAVIAKSDGSTTYAVPVKGRFTISRDDAKNTVYLQMNSLKPEDTAIYYCNKIPNFTYWGQGTQVTVSS	186		
Nb585 (VHH) VHH: QVQLQESGGGLVQAGGSLRLSCAASGFTFEDYTIGWFRQAPGKEREGVSLISNSDGFTSYADSVKGQFTISSENAKNTVYLQMDNLKPEDTAVYYCAATEVLAHLMWRPSNWGYWGQGTQVTV	21		fold drop in affinity against RelCt [2]: 28 fold
Nb96 (VHH) VHH: QVQLQESGGGLVQAGGSLRLSCAASGSIFDIKVMAWYRQAPGKSRELVAVHASADDSTTYEKSVKGRFTISRDNAKNTVYLQMNSLKPEDTAIYYCNRIPNFTHWGQGTQVTVS		157	
Nb94 (VHH) VHH: QVQLVESGGGMVQPGGSLRLSCAASGFTFSTYSMGWFRQAPGQEREFVAAISWSGDSAYYADSVKGRFTISRDNAKNTVYLQMNSLKFEDTAVYYCNADLDGLGYDYWGQGTQVTVS		13	
Nb120 (VHH) VHH: QVQLVESGGGLVQPGGSLRLSCAASGTIRSLNAMAWYRQAPGKERELAARISSGGTTTYADSVKGRFTISRDNAKNTLYLQMNSLKPEDTAVYYCKANRFSTYGYRDDIWGQGTQVTVS			binding result [3]: no binding

— article doi:10.1101/2025.08.07.669093 (bioRxiv, 2025)
